Measurements published in patent US20230183342A1 (YISSUM RESEARCH DEVELOPMENT COMPANY OF THE HEBREW …, published 2023).
Blank lines part the entries; values can stand above or below the binder they belong to.

Columns and labels:
NKp46 D1 domain-Ig = molecular target: T1, NKp46 D1 domain-Ig (human, UniProt O76036 22-120); test: ELISA, D1-Ig plated at 0.1 ug/well, biotin anti-mouse / streptavidin-POD / TMB, OD 650nm
T1 construct: domain: D1; also called D1-Ig; Ig-D1; not shown: Ig part not described for this construct
Protocol: To identify the binding site of the anti-NKp46 mAbs, Ig-D1, Ig-D2 and Ig-NKp46 were plated at 0.1 µg/well. The plate was placed at 4° C. overnight. The next day blocking was performed (blocking buffer is PBSx1, 0.05%Tween-20, and 5% BSA) followed by addition of the mAbs at 0.1 µg/well and 10 µl/well of SN antibodies (both diluted in blocking buffer to a final volume of 100µl). The plate was placed at 4° C. overnight. The next day, biotin anti-mouse was added (diluted in blocking buffer), followed by streptavidin-POD (diluted in blocking buffer), and with TMB for detection of samples at OD650nm.

[1] = molecular target: T2, Acro Biosystems Human NKp46 expressed in HEK293 cells (human, UniProt O76036 22-258); test: ELISA titration on coated Acro Biosystems human NKp46, anti-human kappa-HRP, absorbance at 450 nm; given as affinity
T2 construct: Bought antigen coated on the ELISA plate
Protocol: The binding of the humanized antibodies with mutated IgG4 to cells expressing NKp46 was examined. The experiments were performed as follows: [0300] 1. Coat tested in a matrix of 3 conc. vs. 3 buffers to find optimal signal. [0301] 2. Optimal signal conditions were used to coat the ELISA tray, using standard blocking and washing steps. [0302] 3. Primary antibody applied in range of concentrations with 10-dilutions (MAbs with humanized variable + mutated IgG4). [0303] 4. Secondary Ab used to detect binding was Anti-Hu Kappa with HRP (TMB sub strate). [0304] 5. Absorbance measured at 450 nm.
The antigen was Acro Biosystems Human NKp46 that was expressed in HEK293 cells.

T2 sequence (O76036 22-258 limits assumed): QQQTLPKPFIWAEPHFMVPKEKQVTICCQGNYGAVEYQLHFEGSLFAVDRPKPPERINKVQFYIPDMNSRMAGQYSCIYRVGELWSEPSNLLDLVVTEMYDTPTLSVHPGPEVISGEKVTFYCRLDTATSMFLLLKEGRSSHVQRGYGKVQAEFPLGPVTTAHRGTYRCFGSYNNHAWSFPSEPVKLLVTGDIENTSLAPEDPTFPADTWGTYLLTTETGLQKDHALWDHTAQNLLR
T1 sequence (O76036 22-120): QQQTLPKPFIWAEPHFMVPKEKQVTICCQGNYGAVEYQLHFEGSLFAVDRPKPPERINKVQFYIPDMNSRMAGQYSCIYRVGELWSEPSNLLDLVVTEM

binding result (NKp46 D1 domain-Ig): no binding
B1: anti-NKp46 monoclonal antibody clone K3 (antibody, V domains shown)
VH: EVQLQQSGPELVKPGTSVKISCKTSGYTFTEYSMHWVKQSHGKSLEWFGGISPNSGGTSYNQKFKGKATLTVDKSSSTAYMELRSLTSEDSAVYYCARRDFHSSFDYWGQGTTLTVSS
VL: DIVLTQSPATLSVTPGNSVSLSCRASQSISDYLHWFQQKSHESPRLLIKYASQSISGIPSRFSGSGSGSDFTLSINSVEPEDVGVYYCQNGHSFPLTFGPGTKLELK

Kd [1]: 0.0205 nM
B2: humanized P4 antibody having mutated IgG4 (antibody, V domains shown)
VH: EVQLQQSGAEVKKPGSSVKVSCKTSGYTFTEYSMHWVRQAPGKSLEWFGGISPNSGGTSYNQKFKGRATLTVDKSSSTAYMELSSLRSEDTAVYYCARRDFHSSFDYWGQGTTVTVSS
VL: DIVMTQSPATLSLSPGERATLSCRASQSISDYLHWFQQKPHESPRLLIKYASQSISGIPARFSGSGSGSDFTLTISSLEPEDFAVYYCQNGHSFPLTFGPGTKVDIK
notes: detected with an anti-human kappa secondary antibody

Kd [1]: 0.027 nM
B3: humanized K3 antibody having mutated IgG4 (antibody, V domains shown)
VH: B2 VH
VL: DIVLTQSPATLSLSPGERATLSCRASQSISDYLHWFQQKPHESPRLLIKYASQSISGIPARFSGSGSGSDFTLTISSLEPEDFAVYYCQNGHSFPLTFGPGTKVDIKR
notes: as for B2
